What was measured:
MBP-Rop^G11 (D45N) = target: T1, MBP-Rop^G11 (D45N) (Drosophila melanogaster, UniProt Q07327 1-597, D45N); experiment: pull-down; GST-syx1A^ΔC (2 ug) bound to GST bind resin, 1 hr at 4°C with MBP-Rop or MBP-Rop^G11 at 0-6 uM in NP40 buffer (1% NP-40, 150 mM NaCl, 2 mM EDTA, phosphate); SDS-PAGE, Coomassie, fraction bound quantified in ImageJ, Kd from a dose response curve fit (Prism 6); n = 2; settings: both partners purified
T1 construct: Rop (Ras opposite, Unc-18 orthologue), Drosophila melanogaster; PMAL-Rop with the point mutation of the Rop^G11 allele (Asp45 to Asn; nucleotide G133A) made by site-directed mutagenesis; Same construct as m1 with D45N; the mutation is that of the Rop^G11 allele of Harrison et al., 1994; also called recombinant Rop^G11 mutant protein; source: Rosetta cells (Novagen), purified (amylose resin, …)
T1 sequence (Q07327 whole entry D45N): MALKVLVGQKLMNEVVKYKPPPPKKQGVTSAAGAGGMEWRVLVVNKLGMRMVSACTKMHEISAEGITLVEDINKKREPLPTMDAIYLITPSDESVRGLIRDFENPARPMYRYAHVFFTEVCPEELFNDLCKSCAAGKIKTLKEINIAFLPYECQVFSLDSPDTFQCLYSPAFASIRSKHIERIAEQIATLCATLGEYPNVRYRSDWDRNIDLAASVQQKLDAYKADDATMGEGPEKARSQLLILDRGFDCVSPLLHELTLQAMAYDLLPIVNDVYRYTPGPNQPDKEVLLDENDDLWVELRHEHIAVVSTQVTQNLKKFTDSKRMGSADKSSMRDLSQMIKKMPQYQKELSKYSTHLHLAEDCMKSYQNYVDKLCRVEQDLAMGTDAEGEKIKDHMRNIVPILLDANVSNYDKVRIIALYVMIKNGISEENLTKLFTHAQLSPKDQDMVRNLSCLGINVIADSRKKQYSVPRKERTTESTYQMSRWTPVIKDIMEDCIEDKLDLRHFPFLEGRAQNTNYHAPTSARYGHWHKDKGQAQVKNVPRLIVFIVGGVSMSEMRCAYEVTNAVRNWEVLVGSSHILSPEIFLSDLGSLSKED

[1] = target: T2, MBP-Rop (recombinant wild-type Rop, Drosophila Unc-18) (Drosophila melanogaster, UniProt Q07327 1-597); experiment: as above; settings: both partners purified
T2 construct: Rop (Ras opposite, Unc-18 orthologue), Drosophila melanogaster; cDNA SD04216 amplified with primers from the start ATG to the stop codon and cloned into pMAL-c5E; Expressed from pMAL-c5E (NEB N8110); printed size of the fusion 110 kDa; also called MBP-Rop^WT; Ras opposite; source: Rosetta cells (Novagen), purified (amylose resin, eluted with maltose)
T2 sequence (Q07327 whole entry, the tested form may be a part): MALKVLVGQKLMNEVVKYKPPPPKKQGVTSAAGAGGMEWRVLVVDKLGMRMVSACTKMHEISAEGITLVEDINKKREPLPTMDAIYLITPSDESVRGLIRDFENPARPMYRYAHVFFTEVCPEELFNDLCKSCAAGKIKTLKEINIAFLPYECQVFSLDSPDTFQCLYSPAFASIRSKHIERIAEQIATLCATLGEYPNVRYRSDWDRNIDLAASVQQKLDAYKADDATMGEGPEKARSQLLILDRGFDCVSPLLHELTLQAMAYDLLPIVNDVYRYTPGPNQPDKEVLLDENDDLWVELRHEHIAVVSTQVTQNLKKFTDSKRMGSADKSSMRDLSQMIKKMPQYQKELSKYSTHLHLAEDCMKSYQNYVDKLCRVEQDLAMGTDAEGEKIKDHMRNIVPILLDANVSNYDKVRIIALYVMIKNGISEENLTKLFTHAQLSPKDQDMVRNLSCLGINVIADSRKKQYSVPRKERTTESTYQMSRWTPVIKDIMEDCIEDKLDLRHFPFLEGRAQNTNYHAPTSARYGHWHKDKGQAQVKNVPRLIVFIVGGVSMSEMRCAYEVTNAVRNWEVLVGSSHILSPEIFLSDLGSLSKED

Kd [1]: 400 nM
B1: GST-syx1A^ΔC (Syntaxin1A, amino acids 1-268) (domain or fragment, Drosophila melanogaster, UniProt Q24547 1-268, looked up)
chain: MTKDRLAALHAAQSDDEEETEVAVNVDGHDSYMDDFFAQVEEIRGMIDKVQDNVEEVKKKHSAILSAPQTDEKTKQELEDLMADIKKNANRVRGKLKGIEQNIEQEEQQNKSSADLRIRKTQHSTLSRKFVEVMTEYNRTQTDYRERCKGRIQRQLEITGRPTNDDELEKMLEEGNSSVFTQGIIMETQQAKQTLADIEARHQDIMKLETSIKELHDMFMDMAMLVESQGEMIDRIEYHVEHAMDYVQTATQDTKKALKYQSKARRKK
notes: Syntaxin 1A, Drosophila melanogaster, amino acids 1-268; Expressed from pGEX-4T1; printed size of the fusion 60 kDa; The nucleotide change A802T would turn codon 268 into a stop, so the chain may end at residue 267 rather than 268; also called recombinant Syntaxin1A
Kd (MBP-Rop^G11 (D45N)): 36.1 µM
